Measured values: paper PMC3950671

What was measured:
PGC7 D9 = target: T1, PGC7 D9 (human, UniProt Q6W0C5 20-95); test: EMSA
T1 sequence: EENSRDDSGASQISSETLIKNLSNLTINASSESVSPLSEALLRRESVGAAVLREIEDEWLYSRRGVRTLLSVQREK

PGC7 (Dppa3/Stella) = target: T2, PGC7 (Dppa3/Stella) (human, UniProt Q6W0C5 1-159); test: EMSA
T2 sequence: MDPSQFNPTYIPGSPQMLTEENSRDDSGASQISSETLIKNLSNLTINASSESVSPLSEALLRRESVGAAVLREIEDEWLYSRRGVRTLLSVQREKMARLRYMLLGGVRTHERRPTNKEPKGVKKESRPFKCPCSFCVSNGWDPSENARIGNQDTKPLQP

B1: PGC7 motif 50-mer (dsDNA)
DNA 1: GAGTAAGATCATGCCACTGCACTTCAGCCTGGGCACAGAGTGAGGCTGGG
DNA 2: CCCAGCCTCACTCTGTGCCCAGGCTGAAGTGCAGTGGCATGATCTTACTC
- binding result (PGC7 D9): binds
- binding result (PGC7 (Dppa3/Stella)): binds
